Assay: soluble on expression in E. coli; label from the status in PepcDB or PDB records

Sequence	soluble on expression in E. coli
MADNYVIWFENLRMTDVERVGGKNASLGEMISQLTEKGVRVPGGFATTAEAYRAFLAHNGLSERISAALAKLDVEDVAELARVGKEIRQWILDTPFPEQLDAEIEAAWNKMVADAGGADISVAVRSSATAEDLPDASFAGQQETFLNINGLDNVKEAMHHVFASLYNDRAISYRVHKGFEHDIVALSAGVQRMVRSDSGASGVMFTLDTESGYDQVVFVTSSYGLGENVVQGAVNPDEFYVFKPTLKAGKPAILRKTMGSKHIKMIFTDKAEAGKSVTNVDVPEEDRNRFSITDEEITELAHYALTIEKHYGRPMDIEWGRDGLDGKLYILQARPETVKSQEEGNRNLRRFAINGDKTVLCEGRAIGQKVGQGKVRLIKDASEMDSVEAGDVLVTDMTDPDWEPV	not soluble
MIVSWRHKGLKAFFETGSSSGIRADHSKRLAHVLAVLNRARTPANVNMPGWRLHPLKGELEGFWSITINANWRIIFRFFDTDVELVDYLDYH	not soluble
MGSDKIHHHHHHMTGTESGASGGQPANSDDWDAVTARREAEALIIDVDGFEGPLDLLLTLSRTQKVDLRRISILALTEQYLVFIEKARQLRIELAADYLVMAAWLAFLKSKLLLPPEPGEEGPSGEDLAAHLAFQLERLAAMRDCAARLMAQDRLGRDRFVRGQTQAMTTNRKVIYTAGLLDLMQAYARIRTKDEFRPFVMDREAVLTMEEALDRLRGMVGYMGDWADLMSYLPDGWTTDPAKRRSAAAANFAAALELAKAGRVEIRQADTFSPIQLRRKEP	not soluble
MHTIPITTDSAASWDWPLQHNDGVVKVTNTSEKFEVGLDAGFFGPNDIDVKVNGIEIIIHLRHDNRPTEYGIVNREVHRTYKLPEDVDPSTVRSHLNSSGVLTITANKL	not soluble
MGSDKIHHHHHHMMYQTYDLYSRSAEMMNGFISVNQQLLTHPFNPFSNTLLGKSINAALDSAYHHTKVYDKQPFDIKTTIIDGETVNIDEQVILAKPFCNLIHFKQDTKVQQPKLFLVAPLSGHHATLLKATIERLILDHDVYITDWLDAKNVPLSEGNFDFDDYVTYLIEFMKEIGEDTHVLAVCQPAVQALIATAVLAKDKDAATPKSLTIIAGPIDTSINPNELNKYASSKDLSWFENNVIMTVPERFPGAGRKVYPGFIQLTSFMAMNIENHVKKHTDYFGHVFHGKEDKQESHRDFYDEYLAVLDLNSEFYLETLDRVFINQDLANGKMTYHGELVDLSAITDTALHTIEGKNDDICSLGQTQAAQALCSGIPEQNKLDQVFDGVGHFGTFSGSAFRERIAPSIAEFIQKHK	not soluble
MGSDKIHHHHHHMALGHRVKEAREFRSLKQGELAELIGWTQQALSTLENRDSKKSSYSAQISKALDIDIDWLISGAGEMINTKKEAKSAKKLIKYVPVKGSAQMGDNGFWSELDYMGAGGDGYLEVNNASDSAYVIRAVGDSMFPAIRSGWYIVFDPSREACSGEYVHIVLKDGRNMVKEYVSCQHGIVNLISVNGMERISFNCEDVDVLNPFVEIQPPSRLRDDLDLFDTKCEEM	not soluble
MGSDKIHHHHHHMSQLLIKNAYLITMNADREVYENGSILIENNIIKEVGKFDINIVDKDAEIYDAKGKILMPGLVNTHVHLSQQLGRGLADDVVLLTWLRERIWPYESSFNYEDSLISSTACCVELIKSGVTTFLESGGQYVDAMVEAVDKTGLRACLAKSVMDTGDGLPEAWQKTTDEEINTQLDLFHKFNNTSNERIKIWFALRTIFNTTEELLVRTKELADKYNTGIHMHIAEIADEISFVKQNNGVGTVEYLDKLGVLGPNLLAAHTVWLTHKEIDLFRLHDVKVSHDPGSAMKVVLGFASIPEMLEKGIPVSIGTDGAPSNNRMDLMRDMYLTSLIHKGRTLNPTVVPAEEVLEMATINGAKCALLEKEIGSLEVGKKADMIILNPDTIHCLPMHNPIGNIVYSMTSENVDSTICDGKWLMKERKVLVVDESELLNKVKKQASKIKDKAEVKIPSKFKIIK	not soluble
MKQTPPLISFITICYNGLDDTCMLIESLRDTISSVSYEIIVVDNASRQDEASLIQERYPFVRTLRSEKNLGFSGGNNLGIQIAQGKYLFLINNDTYLTEDGLPALIERLESDPRIGAVSPKIRFAFPPQSIQFAGYTKLSRYTMRNKALGMGCPDDGTFDTPRPSAYLHGAALMLKREVIWKAGLMPEIYFLYYEELDWCTSMTRAGYQLWYEPRCTIFHKESQSTGRQSPLRTFYMMRNRMLYAWRNLPGMERCLAIAYQMLIVAPKDSLCFVLKGEPKLAKAVWHGVKGFWKLCLEHHHHHH	soluble
MGSDKIHHHHHHMFHREDFSKALLKKALQPGMRVMDIGCGSGELTRLAADIVGKEGDVVGIDINEQLLWQARHDNGYANVSYQNADLAALSSFETKSFDAIIGRRVLMYQKDPKKVIESLTPLLKPNGFYVFQESDAMCLELAKPSFVNMNKIQSLIWQTVEKEGGHIHIGSQLEQLMLEAGLIVDHFVSENVIQTSQTGTDLSWLLNIMKERIQKYSDLQGLEDVNLQKELEENNDHFIRDCQFGIISHRVDE	not soluble
RESLGRDVMVVVDLSGSMAEQDFVSKQSSDLGAVKKISRLEATKEVLADFVKTRKGDRLGLILFGDAAFVQTPFTADQSVWLELLNQTDVAMAGQSTHLGDAIGLAIKVFEQSSEDKASAEENAKPREKVAIVLTDGNDTGSYVEPIDAAKVAAAKDVRIHMIAMGDPRTVGEQALDMNIINRVAKESGGKAFQAINRDELEQAYDEIGELEPQLYE	not soluble
MSLRPYQEKARLFLNGEMSATLFVELGIATSCRKGLKKGFFNQDDFFAYQCDEWGLYGVFDGHGPGGHLVANFVQWHLPNIIHEYMITSEPRVALHRAFVEVNSMLTDASEAQKFDSASSGSTASVVLHRRQERKLFLAHVGDSRVVLARRNHQGRLVADCVTKDHKPDDPVERARIERHGGEVRRPTGHIPHRVFLKGKNYPGLAMSRSIGDSMGHCAGVTSEPDISDIDLLEDRDEVVIMCTDGVWEFMTPDEVVDIVSRYSIYQADEAAQELSREAWKRWLEQDGHSVDDITVQIIHLFPPAEEKHPEGHHHHHH	soluble
MAHHHHHHMKEDESDEPVQKKEYEKTFWEQIGKPKHILAPMVDLSELAFRLLCRNYNCHLTFTPMLHAKNFVEHEKYRKSYFQSCEKDEPVIAQFCGNNSKIILNAIEYIKNEVNAVDLNLGCPQQIAKKGNYGAFLLQKHDEVVNLVSDITNNCNIPITCKIRKIDQDYQKTLNLCYDLQSRNVKMITVHGRTKEEKGTNIKQCDYEIIKIIKERLNIPIIANGSIEHFEDIQKCLNYTKADAVMCAEILLEKPYFFSNQNVHTVDVVNEYYDLFLQYESNTKYLKGHLFKMLYKYFQVHTDLRDMLNNCHSLDDYVNFRSILNEKRSSGVLTESSLSWYRRYRKTE	not soluble
GATCLSQYCADKARDGVCDEACNSHACQWDGGDCSLTMENPWANCSSPLPCWDYINNQCDELCNTVECLFDNFECQGNSKTCKYDKYCADHFKDNHCNQGCNSEECGWDGLDCAADQPENLAEGTLVIVVLMPPEQLLQDARSFLRALGTLLHTNLRIKRDSQGELMVYPYYGEVAGSKVFLEIDNRQCVQDSDHCFKNTDAAAALLASHAIQGTLSYPLVSVVSESLTPERTQ	soluble
MSDEISILIQDRKTGQRRNLTLNINITGNIEDLTKDVEKLTEIPSDELEVVFCGKKLSKSTIMRDLSLTPATQIMLLRPKFNSHNENGATTAKITTDSSILGSFYVWCKNCDDVKRGKLRVYCQKCSSTSVLVKSEPQNWSDVLKSKRIPAVCEECCTPGLFAEFKFKCLACNDPAAALTHVRGNWQMTECCVCDGKEKVIFDLGCNHITCQFCFRDYLLSQLERFGFVNQPPHGFTIFCPYPGCNRVVQDVHHFHIMGQTSYSEYQRKATERLIAVDDKGVTCPNVSCGQSFFWEPYDDDGRSQCPDCFFSFCRKCFERNCVCQSEDDLTRTTIDATTRRCPKCHVATERNGGCAHIHCTSCGMDWCFKCKTEWKEECQWDHWFN	not soluble
MSLSGTITFSTGTRAGVYQKYGELLRTELRKDMPGLDVRLMTSAGSQENVERVASGEADFTIAAADAVETYKLAGSPGAEGLRGVTRLYDDYVQLVVPSDSDIQSVRDLRGKRVAIGLPNSGVRLIATRLLKAVGIDPETDITPRADGIDTGPGRLGDELDAFFWSGGVPTDGLKEIAESSAFRFVPIGDDLVTKLHRSGGATRYYRTTNMPESAYPTVQNGAVVPTMAVSNLLVTRADVDPRLTEWLTRTVLDSRDGIGAHVHSAQLVDLRTAIYTDPLELHEGARRYYRSVKEGHHHHHH	soluble
MRGSHHHHHHTDPINKDIYQALQQLIPNEKIKVDEPLKRYTYTKTGGNADFYITPTKNEEVQAVVKYAYQNEIPVTYLGNGSNIIIREGGIRGIVISLLSLDHIEVSDDAIIAGSGAAIIDVSRVARDYALTGLEFACGIPGSIGGAVYMNAGAYGGEVKDCIDYALCVNEQGSLIKLTTKELELDYRNSIIQKEHLVVLEAAFTLAPGKMTEIQAKMDDLTERRESKQPLEYPSCGSVFQRPPGHFAGKLIQDSNLQGHRIGGVEVSTKHAGFMVNVDNGTATDYENLIHYVQKTVKEKFGIELNREVRIIGEHPKESLQPSLIS	soluble
MGSSHHHHHHSSGRENLYFQGMPSLTPRCIIVRAGQTEWSKSGQYTGLTDLPLTPYGEGQMLRTGESVFRNNQFLNPDNITYIFTSPRLRARQTVDLVLKPLSDEQRAKIRVVVDDDLREWEYGDYEGMLTREIIELRKSRGLDKERPWNIWRDGCENGETTQQIGLRLSRAIARIQNLHRKHQSEGRASDIMVFAHGHALRYFAAIWFGLGVQKKCETIEEIQNVKSYDDDTVPYVKLESYRHLVDNPCFLLDAGGIGVLSYAHHNIDEPALELAGPFVSPPEEESQHGDV	soluble
MTTVLYYLPASPPCRSVLLLAKMIGVELDLKVLNIMEGEQLKPDFVELNPQHCIPTMDDHGLVLWESRVILSYLVSAYGKDENLYPKDFRSRAIVDQRLHFDLGTLYQRVVDYYFPTIHLGAHLDQTKKAKLAEALGWFEAMLKQYQWSAANHFTIADIALCVTVSQIEAFQFDLHPYPRVRAWLLKCKDELEGHGYKEINETGAETLAGLFRSKLKQ	soluble
GPGSMESSMSTGDLLTPGALWQDDTKVFVCSGRRCGRRFNRLFCPKHRCRWCGRVYCDACAPKQTVYKRQLLRKCNRCRLPVVFRYSWNERTRAMDCTPFECIISYLTPRSITALLQSCYTMMSEFPVCGYPFYDSIQQRFPSFYPGAQIGRGTFGTVFKCEDRSAADHKRAILKCISKATNLTYTRWMGALTELRILESVNHPNVAHLLGAFQTREDLVIVMEAGEGGTARRAAAGVREYGQAAEEAFTANIIEGVAAGLNYLYREKHIIHRDIKLDNIVLSADYSTPMIIDFGLAEFVVNEEEQWYVVGGTRNYAAPESIAAVANGHVDMKEPGITMHKGDLFSLGVVAYYLLSGHRPFRSRSFDKMHEEMRRGVACTGPLWDGVSSDARELVQALLSYDPAQRPDYAAIKENPFITARTAGVKSIQMQRNARLLLDEEETHAEWVTLEPSDLREAADEGESEVLLPLSTPQRWYHAYLPRFSLLHL	not soluble
MEPKLSKDTIIAAAFSLLEKSPTLEQLSMRKVAKQLGVQAPAIYWYFKNKQALLQSMAEAIEEHFQEPALCGEWYSDLLAFMENYYDLYQQFPCAVAIEIQTVPAYPQRLRHLNQMMGILREAGFSPEMTHLAVTSLQHLLFGMIMDATEEKQLVSQVLNGDDYLKEQVLHMKQYVSDNELTYMEESIQFRHSIHQKSAFIQAVKTYLDGLQADNTSSSK	soluble
MKLINTTNSHSQLVKSQLESTDATLVEVYSAGNTDVIFTQAPLHYEILISNKHRAIREPEIETIQEFFLKRKIDKASVDEANIKTLYSEKLIGISIPIK	not soluble
MKSVLITFDQAYYERIMALLDRLNCRGFTYLEKVQGRGSKTGDPHFGSHAWPSMCSAILTVVDDNKVDPLLDTLHKMDLQTEQLGLRAFVWNIERTI	not soluble
